Where a chain is given by its changes, count along the chain named.
T1: AtrR DNA-binding domain (AtrR-DBD) (Aspergillus fumigatus) (UniProt Q4WI89)
T1 sequence: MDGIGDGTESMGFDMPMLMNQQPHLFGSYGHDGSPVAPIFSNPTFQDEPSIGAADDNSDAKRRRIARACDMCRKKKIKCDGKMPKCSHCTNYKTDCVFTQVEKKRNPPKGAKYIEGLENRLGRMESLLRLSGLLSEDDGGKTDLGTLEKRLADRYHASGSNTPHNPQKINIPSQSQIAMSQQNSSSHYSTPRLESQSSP

T2: AtrR DNA-binding domain (AtrR-DBD) (Aspergillus fumigatus, UniProt Q4WI89 1-199)
T2 sequence: T1 sequence

B1: EcoRI mutant competitor (dsDNA)
DNA 1: GTTGTCTCAGAATCACGCGGTCCGGATGTGGAATTCGCCGAAT
DNA 2: ATTCGGCGAATTCCACATCCGGACCGCGTGATTCTGAGACAAC
B2: cyp51A 42-bp wild-type competitor (dsDNA)
DNA 1: B1 DNA 1 with G31T, A32G, A33C, T35G, C36A
DNA 2: B1 DNA 2 with G8T, A9C, T11G, T12C, C13A
B3: DM competitor (dsDNA)
DNA 1: GAATCACGCGGTATTGATGTGTGCTGAGTATAAT
DNA 2: ATTATACTCAGCACACATCAATACCGCGTGATTC
B4: SphI mutant competitor (dsDNA)
DNA 1: GTTGTCTCAGAATCACGCGGGCATGCTGTGTGCTGAGCCGAAT
DNA 2: ATTCGGCTCAGCACACAGCATGCCCGCGTGATTCTGAGACAAC
B5: cyp51A 34-bp probe (dsDNA)
DNA 1: GAATCACGCGGTCCGGATGTGTGCTGAGCCGAAT
DNA 2: ATTCGGCTCAGCACACATCCGGACCGCGTGATTC

Experiments:
[1] = target: T1, AtrR DNA-binding domain (AtrR-DBD) (Aspergillus fumigatus); experiment: EMSA; settings: Biotin EMSA: 25 mM Tris-HCl pH 7.5, 80 mM NaCl, 35 mM KCl, 5 mM MgCl2, 10% glycerol, 1 ug poly(dI-dC), 20 ul, 0.1 ug AtrR-DBD, 20 pmol probe, room temperature …
[2] = target: T2, AtrR DNA-binding domain (AtrR-DBD); experiment: competition; 10-fold excess over biotinylated 34-bp probe (12-fold in Methods); Biotin EMSA: 25 mM Tris-HCl pH 7.5, 80 mM NaCl, 35 mM KCl, 5 mM MgCl2, 10% glycerol, 1 ug poly(dI-dC), 20 ul, 0.1 ug AtrR-DBD, 20 pmol probe, room temperature 30 min; 32P EMSA and footprinting as in cited reference 40; settings: protein: recombinant; chain copies: 2; blunt
[3] = target: T2, AtrR DNA-binding domain (AtrR-DBD); experiment: EMSA; 5 mM Mg2+, poly(dI-dC); Biotin EMSA: 25 mM Tris-HCl pH 7.5, 80 mM NaCl, 35 mM KCl, 5 mM MgCl2, 10% glycerol, 1 ug poly(dI-dC), 20 ul, 0.1 ug AtrR-DBD, 20 pmol probe, room temperature 30 min; 32P EMSA and footprinting as in cited reference 40; settings: protein: recombinant; chain copies: 2; label: 5' biotin on both strands; blunt

Row | Molecule | binding result [2] | further results
1 | GAAAAAACTCATGAGTGAATAATCGCAGCACCACTCCAGAGTTGTCTAGAATCACGCGGTCCGGATGTGTGCTGAGCCGAATGAAAGTTGCCTAATTACTAAGGTGTAGTTCCAGCATACCATACACCCTAACTCATACTACGGTAGGTAGATCTACTTACCTATGAACCTATATTGGTAGGTAGGTGAATATAAAATACAGCATG (double strand) [cyp51A promoter PCR probe] | – | binding [1]: binds
2 | B1 | binds | –
3 | B2 | binds | –
4 | B3 | no binding | –
5 | B4 | no binding | –
6 | B5 | – | binding result [3]: binds

Source: publication PMC6414702, “AtrR Is an Essential Determinant of Azole Resistance in Aspergillus fumigatus”
